Changes are numbered by the printed parent chain. Names and notes keep the numbering of the source.

The target in the test is T1, CD3 epsilon homodimer protein (UniProt P07766 23-126).
T1 construct: also called CD3 (CD3 epsilon)
Put plainly: SPR Biacore T200, antibody over immobilised CD3e homodimer.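 Further: CD3 epsilon homodimer amine-coupled on a CM4 chip, run at 25 °C in HBS-EP+, Z = bound amount of each single-residue H chain variant over that of the parent antibody.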 For orientation: In SPR one partner is held on a chip, and binding of the other changes the refractive index at the surface.

T1 sequence (P07766 23-126): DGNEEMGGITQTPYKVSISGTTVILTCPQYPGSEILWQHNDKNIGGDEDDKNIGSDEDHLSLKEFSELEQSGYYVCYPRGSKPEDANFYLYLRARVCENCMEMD

B1: CE115HA000 K52bR one-arm antibody (antibody, human IgG1, kappa, L234A L235A, N297A, name in Kabat numbering)
heavy: QVQLVESGGGVVQPGRSLRLSCAASGFTFSNAWMHWVRQAPGKGLEWVAQIKARSNNYATYYAESVKGRFTISRDDSKNSLYLQMNSLKTEDTAVYYCRYVHYGAYYGVDAWGQGTTVTVSSASTKGPSVFPLAPSSKSTSGGTAALGCLVKDYFPEPVTVSWNSGALTSGVHTFPAVLQSSGLYSLSSVVTVPSSSLGTQTYICNVNHKPSNTKVDKKVEPKSCDKTHTCPPCPAPEAAGGPSVFLFPPKPKDTLMISRTPEVTCVVVDVSHEDPEVKFNWYVDGVEVHNAKTKPREEQYASTYRVVSVLTVLHQDWLNGKEYKCKVSNKALPAPIEKTISKAKGQPREPQVYTLPPSRCELTKNQVSLSCAVKGFYPSDIAVEWESNGQPENNYKTTPPVLDSDGSFFLVSKLTVDKSRWQQGNVFSCSVMHEALHNHYTQKSLSLSPDYKDDDDK
chain: EPKSSDKTHTCPPCPAPELLGGPSVFLFPPKPKDTLMISRTPEVTCVVVDVSHEDPEVKFNWYVDGVEVHNAKTKPREEQYNSTYRVVSVLTVLHQDWLNGKEYKCKVSNKALPAPIEKTISKAKGQPREPQVCTLPPSRDELTKNQVSLWCLVKGFYPSDIAVEWESNGQPENNYKTTPPVLDSDGSFFLYSKLTVDKSRWQQGNVFSCSVMHEALHNRYTQKSLSLSP
light: DIVMTQSPLSLPVTPGEPASISCRSSQSLVHSNRNTYLHWYQQKPGQAPRLLIYKVSNRFSGVPDRFSGSGSGTDFTLKISRVEAEDVGVYYCGQGTQVPYTFGQGTKLEIKRTVAAPSVFIFPPSDEQLKSGTASVVCLLNNFYPREAKVQWKVDNALQSGNSQESVTEQDSKDSTYSLSSTLTLSKADYEKHKVYACEVTHQGLSSPVTKSFNRGEC
notes: one-arm antibody
Turning to B1, the “ratio of amounts bound (Z=Y/X vs CE115HA000)” value (“ratio of amounts bound” for short) came to 1.11.

B2: CE115HA000 Q50D one-arm antibody (antibody, human IgG1, kappa, L234A L235A, N297A, name in Kabat numbering)
heavy: B1 heavy with Q50D, R54K
chain: B1 chain
light: B1 light
notes: one-arm antibody
B2: the “ratio of amounts bound” value was 0.27.

B3: CE115HA000 N31A one-arm antibody (antibody, human IgG1, kappa, L234A L235A, N297A, name in Kabat numbering)
heavy: B1 heavy with N31A, R54K
chain: B1 chain
light: B1 light
notes: one-arm antibody
With B3, the “ratio of amounts bound” value is 0.5.

B4: CE115HA000 K64D one-arm antibody (antibody, human IgG1, kappa, L234A L235A, N297A, name in Kabat numbering)
heavy: B1 heavy with R54K, K67D
chain: B1 chain
light: B1 light
notes: one-arm antibody
For the molecule B4, the “ratio of amounts bound” value was determined as 0.72.

B5: CE115HA000 N31F one-arm antibody (antibody, human IgG1, kappa, L234A L235A, N297A, name in Kabat numbering)
heavy: B1 heavy with N31F, R54K
chain: B1 chain
light: B1 light
notes: one-arm antibody
For the molecule B5, the “ratio of amounts bound” value was 0.62.

B6: CE115HA000 N54D one-arm antibody (antibody, human IgG1, kappa, L234A L235A, N297A, name in Kabat numbering)
heavy: B1 heavy with R54K, N57D
chain: B1 chain
light: B1 light
notes: one-arm antibody
On to B6, for which the “ratio of amounts bound” value was 0.62.

B7: CE115HA000 K64E one-arm antibody (antibody, human IgG1, kappa, L234A L235A, N297A, name in Kabat numbering)
heavy: B1 heavy with R54K, K67E
chain: B1 chain
light: B1 light
notes: one-arm antibody
B7: the “ratio of amounts bound” value was found to be 0.74.

B8: CE115HA000 N31D one-arm antibody (antibody, human IgG1, kappa, L234A L235A, N297A, name in Kabat numbering)
heavy: B1 heavy with N31D, R54K
chain: B1 chain
light: B1 light
notes: one-arm antibody
As for B8, the “ratio of amounts bound” value was determined as 0.37.

B9: CE115HA000 N31Y one-arm antibody (antibody, human IgG1, kappa, L234A L235A, N297A, name in Kabat numbering)
heavy: B1 heavy with N31Y, R54K
chain: B1 chain
light: B1 light
notes: one-arm antibody
With B9, the “ratio of amounts bound” value worked out at 0.64.

B10: CE115HA000 N31I one-arm antibody (antibody, human IgG1, kappa, L234A L235A, N297A, name in Kabat numbering)
heavy: B1 heavy with N31I, R54K
chain: B1 chain
light: B1 light
notes: one-arm antibody
Take B10: the “ratio of amounts bound” value was determined as 0.81.

B11: CE115HA000 N31Q one-arm antibody (antibody, human IgG1, kappa, L234A L235A, N297A, name in Kabat numbering)
heavy: B1 heavy with N31Q, R54K
chain: B1 chain
light: B1 light
notes: one-arm antibody
For the molecule B11, the “ratio of amounts bound” value came out at 0.49.

B12: CE115HA000 N53A one-arm antibody (antibody, human IgG1, kappa, L234A L235A, N297A, name in Kabat numbering)
heavy: B1 heavy with R54K, N56A
chain: B1 chain
light: B1 light
notes: one-arm antibody
As to B12, the “ratio of amounts bound” value was found to be 0.7.

B13: CE115HA000 N54K one-arm antibody (antibody, human IgG1, kappa, L234A L235A, N297A, name in Kabat numbering)
heavy: B1 heavy with R54K, N57K
chain: B1 chain
light: B1 light
notes: one-arm antibody
As to B13, the “ratio of amounts bound” value was determined as 1.2.

B14: CE115HA000 N54F one-arm antibody (antibody, human IgG1, kappa, L234A L235A, N297A, name in Kabat numbering)
heavy: B1 heavy with R54K, N57F
chain: B1 chain
light: B1 light
notes: one-arm antibody
In the case of B14, the “ratio of amounts bound” value came to 1.12.

B15: CE115HA000 K64A one-arm antibody (antibody, human IgG1, kappa, L234A L235A, N297A, name in Kabat numbering)
heavy: B1 heavy with R54K, K67A
chain: B1 chain
light: B1 light
notes: one-arm antibody
Consider B15, for which the “ratio of amounts bound” value turned out to be 0.82.

B16: CE115HA000 N31H one-arm antibody (antibody, human IgG1, kappa, L234A L235A, N297A, name in Kabat numbering)
heavy: B1 heavy with N31H, R54K
chain: B1 chain
light: B1 light
notes: one-arm antibody
Turning to B16, the “ratio of amounts bound” value is 0.68.

B17: CE115HA000 N31R one-arm antibody (antibody, human IgG1, kappa, L234A L235A, N297A, name in Kabat numbering)
heavy: B1 heavy with N31R, R54K
chain: B1 chain
light: B1 light
notes: one-arm antibody
Regarding B17, the “ratio of amounts bound” value came out at 1.14.

B18: CE115HA000 K52bS one-arm antibody (antibody, human IgG1, kappa, L234A L235A, N297A, name in Kabat numbering)
heavy: B1 heavy with R54S
chain: B1 chain
light: B1 light
notes: one-arm antibody
For the molecule B18, the “ratio of amounts bound” value was 0.68.

B19: CE115HA000 Q50A one-arm antibody (antibody, human IgG1, kappa, L234A L235A, N297A, name in Kabat numbering)
heavy: B1 heavy with Q50A, R54K
chain: B1 chain
light: B1 light
notes: one-arm antibody
Take B19: the “ratio of amounts bound” value was determined as 0.24.

B20: CE115HA000 N31W one-arm antibody (antibody, human IgG1, kappa, L234A L235A, N297A, name in Kabat numbering)
heavy: B1 heavy with N31W, R54K
chain: B1 chain
light: B1 light
notes: one-arm antibody
Turning to B20, the “ratio of amounts bound” value was 0.63.

B21: CE115HA000 N53I one-arm antibody (antibody, human IgG1, kappa, L234A L235A, N297A, name in Kabat numbering)
heavy: B1 heavy with R54K, N56I
chain: B1 chain
light: B1 light
notes: one-arm antibody
As to B21, the “ratio of amounts bound” value was determined as 0.68.

B22: CE115HA000 N54A one-arm antibody (antibody, human IgG1, kappa, L234A L235A, N297A, name in Kabat numbering)
heavy: B1 heavy with R54K, N57A
chain: B1 chain
light: B1 light
notes: one-arm antibody
In the case of B22, the “ratio of amounts bound” value was found to be 0.85.

B23: CE115HA000 N53D one-arm antibody (antibody, human IgG1, kappa, L234A L235A, N297A, name in Kabat numbering)
heavy: B1 heavy with R54K, N56D
chain: B1 chain
light: B1 light
notes: one-arm antibody
Turning to B23, the “ratio of amounts bound” value was found to be 0.39.

B24: CE115HA000 N54G one-arm antibody (antibody, human IgG1, kappa, L234A L235A, N297A, name in Kabat numbering)
heavy: B1 heavy with R54K, N57G
chain: B1 chain
light: B1 light
notes: one-arm antibody
For the molecule B24, the “ratio of amounts bound” value is 0.98.

B25: CE115HA000 K52bY one-arm antibody (antibody, human IgG1, kappa, L234A L235A, N297A, name in Kabat numbering)
heavy: B1 heavy with R54Y
chain: B1 chain
light: B1 light
notes: one-arm antibody
With B25, the “ratio of amounts bound” value came to 0.74.

B26: CE115HA000 N31K one-arm antibody (antibody, human IgG1, kappa, L234A L235A, N297A, name in Kabat numbering)
heavy: B1 heavy with N31K, R54K
chain: B1 chain
light: B1 light
notes: one-arm antibody
As to B26, the “ratio of amounts bound” value was determined as 1.01.

B27: CE115HA000 N31S one-arm antibody (antibody, human IgG1, kappa, L234A L235A, N297A, name in Kabat numbering)
heavy: B1 heavy with N31S, R54K
chain: B1 chain
light: B1 light
notes: one-arm antibody
With B27, the “ratio of amounts bound” value is 0.81.

B28: CE115HA000 Q50E one-arm antibody (antibody, human IgG1, kappa, L234A L235A, N297A, name in Kabat numbering)
heavy: B1 heavy with Q50E, R54K
chain: B1 chain
light: B1 light
notes: one-arm antibody
As to B28, the “ratio of amounts bound” value is 0.26.

B29: CE115HA000 N53H one-arm antibody (antibody, human IgG1, kappa, L234A L235A, N297A, name in Kabat numbering)
heavy: B1 heavy with R54K, N56H
chain: B1 chain
light: B1 light
notes: one-arm antibody
Turning to B29, the “ratio of amounts bound” value was determined as 0.76.

B30: CE115HA000 N53G one-arm antibody (antibody, human IgG1, kappa, L234A L235A, N297A, name in Kabat numbering)
heavy: B1 heavy with R54K, N56G
chain: B1 chain
light: B1 light
notes: one-arm antibody
Take B30: the “ratio of amounts bound” value came out at 0.5.

B31: CE115HA000 N53K one-arm antibody (antibody, human IgG1, kappa, L234A L235A, N297A, name in Kabat numbering)
heavy: B1 heavy with R54K, N56K
chain: B1 chain
light: B1 light
notes: one-arm antibody
Take B31: the “ratio of amounts bound” value stood at 0.78.

B32: CE115HA000 N31G one-arm antibody (antibody, human IgG1, kappa, L234A L235A, N297A, name in Kabat numbering)
heavy: B1 heavy with N31G, R54K
chain: B1 chain
light: B1 light
notes: one-arm antibody
Regarding B32, the “ratio of amounts bound” value worked out at 0.39.

For the origin of these results see patent publication US20240270846A1 (published 2024).
